From patent publication US20030211469A1, “Inhibiting hepatitis c virus processing and replication” (priority 2003, published 2003)

Target: NS2/3 (810-1615BK): HCV residues 810-1615 of the BK strain, all of NS2 and most of NS3 (Hepatitis C virus, BK strain) (UniProt P26663)
Experiment: co-immunoprecipitation with anti-HSP90 mAb 3G3; NS2/3 synthesized in reticulocyte lysate with or without 10 µM geldanamycin (small molecule)

Sequence of UniProt P26663 (P26663 810-1615): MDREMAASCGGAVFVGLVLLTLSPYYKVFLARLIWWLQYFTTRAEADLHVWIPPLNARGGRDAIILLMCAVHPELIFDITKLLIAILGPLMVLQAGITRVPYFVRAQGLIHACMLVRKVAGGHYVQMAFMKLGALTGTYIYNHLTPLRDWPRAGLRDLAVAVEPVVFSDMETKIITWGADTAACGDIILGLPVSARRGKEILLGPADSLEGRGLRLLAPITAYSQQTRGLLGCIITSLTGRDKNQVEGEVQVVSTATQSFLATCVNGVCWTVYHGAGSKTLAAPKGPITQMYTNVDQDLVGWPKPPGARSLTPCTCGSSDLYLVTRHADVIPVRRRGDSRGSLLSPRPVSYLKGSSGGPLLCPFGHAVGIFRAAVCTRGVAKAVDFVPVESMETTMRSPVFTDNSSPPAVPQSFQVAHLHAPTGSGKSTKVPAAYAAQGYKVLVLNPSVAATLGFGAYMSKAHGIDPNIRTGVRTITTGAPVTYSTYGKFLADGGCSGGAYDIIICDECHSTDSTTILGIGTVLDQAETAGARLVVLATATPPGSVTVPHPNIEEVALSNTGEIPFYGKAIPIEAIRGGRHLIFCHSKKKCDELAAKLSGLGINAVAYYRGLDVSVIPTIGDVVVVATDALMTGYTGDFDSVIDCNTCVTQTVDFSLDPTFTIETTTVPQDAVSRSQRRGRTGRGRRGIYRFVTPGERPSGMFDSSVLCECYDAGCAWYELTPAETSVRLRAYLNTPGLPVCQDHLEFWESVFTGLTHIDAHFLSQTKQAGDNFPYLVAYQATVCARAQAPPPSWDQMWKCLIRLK

Substance: heat shock protein 90 (HSP90) (from UniProt P30947 2-726)
- decrease of the amount of NS2/3 co-immunoprecipitated in the presence of 10 µM geldanamycin: 60%
